{"source": "paper PMC11969719", "about": "“Rapid synthesis of glycosylated insulins by flow-based peptide synthesis” (Chemical Science, 2025)", "origin": "cited, not measured here", "conditions": "ref [5c,18]", "from_the_text": "To address this issue, we incorporated an isoacyl dipeptide unit at the Thr^A8-Ser^A9 position (superscripts indicate positions in the A-chain), following a previous report,[8b] as the isoacyl dipeptide improves both peptide solubility and synthetic efficiency.[19]", "data": [{"substance": "A-chain: insulin A-chain, 21-amino acid chain of human insulin", "values": [{"measurement": "solubility (in words)", "value": "poor solubility"}]}]}
